The results in this text go back to US20020187514A1 (priority 1999, published 2002).

In assay [1] the target is Complement C5a (Homo sapiens, UniProt P21730). The assay is described as follows: Complement C5a (Human); [125I]BH-rC5a. The format is binding. The settings on record: reference compound, QA/QC; read-out: Ref Kj.
The target in assay [2] is Epidermal Growth Factor, EGF. The assay is described as follows: Epidermal Growth Factor, EGF; [125I]EGF. The note with it: reference compound, QA/QC; read-out: Ref Kj. The format is binding.

Chain of Complement C5a (P21730 whole entry): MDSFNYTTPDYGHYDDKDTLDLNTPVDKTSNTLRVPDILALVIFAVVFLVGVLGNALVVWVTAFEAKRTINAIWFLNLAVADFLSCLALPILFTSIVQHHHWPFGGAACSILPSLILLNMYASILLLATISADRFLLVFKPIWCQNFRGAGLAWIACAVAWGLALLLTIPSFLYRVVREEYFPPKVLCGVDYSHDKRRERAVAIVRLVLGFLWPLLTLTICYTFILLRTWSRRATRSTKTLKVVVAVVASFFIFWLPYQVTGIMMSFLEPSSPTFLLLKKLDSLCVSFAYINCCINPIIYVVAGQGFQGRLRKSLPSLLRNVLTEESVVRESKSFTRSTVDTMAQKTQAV

B1: rC5a, Human: reference compound, Complement C5a assay (protein, UniProt P01031 678-751, looked up)
C5a anaphylatoxin: TLQKKIEEIAAKYKHSVVKKCCYDGACVNNDETCEQRAARISLGPRCIKAFTECCVVASQLRANISHKDMQLGR
modifications: C5a anaphylatoxin
Take B1: the Ki in assay [1] is 0.619 nM.

B2: EGF: reference compound, Epidermal Growth Factor assay (protein, UniProt P01133 23-1207, looked up)
Pro-epidermal growth factor: PQHWSCPEGTLAGNGNSTCVGPAPFLIFSHGNSIFRIDTEGTNYEQLVVDAGVSVIMDFHYNEKRIYWVDLERQLLQRVFLNGSRQERVCNIEKNVSGMAINWINEEVIWSNQQEGIITVTDMKGNNSHILLSALKYPANVAVDPVERFIFWSSEVAGSLYRADLDGVGVKALLETSEKITAVSLDVLDKRLFWIQYNREGSNSLICSCDYDGGSVHISKHPTQHNLFAMSLFGDRIFYSTWKMKTIWIANKHTGKDMVRINLHSSFVPLGELKVVHPLAQPKAEDDTWEPEQKLCKLRKGNCSSTVCGQDLQSHLCMCAEGYALSRDRKYCEDVNECAFWNHGCTLGCKNTPGSYYCTCPVGFVLLPDGKRCHQLVSCPRNVSECSHDCVLTSEGPLCFCPEGSVLERDGKTCSGCSSPDNGGCSQLCVPLSPVSWECDCFPGYDLQLDEKSCAASGPQPFLLFANSQDIRHMHFDGTDYGTLLSQQMGMVYALDHDPVENKIYFAHTALKWIERANMDGSQRERLIEEGVDVPEGLAVDWIGRRFYWTDRGKSLIGRSDLNGKRSKIITKENISQPRGIAVHPMAKRLFWTDTGINPRIESSSLQGLGRLVIASSDLIWPSGITIDFLTDKLYWCDAKQSVIEMANLDGSKRRRLTQNDVGHPFAVAVFEDYVWFSDWAMPSVMRVNKRTGKDRVRLQGSMLKPSSLVVVHPLAKPGADPCLYQNGGCEHICKKRLGTAWCSCREGFMKASDGKTCLALDGHQLLAGGEVDLKNQVTPLDILSKTRVSEDNITESQHMLVAEIMVSDQDDCAPVGCSMYARCISEGEDATCQCLKGFAGDGKLCSDIDECEMGVPVCPPASSKCINTEGGYVCRCSEGYQGDGIHCLDIDECQLGEHSCGENASCTNTEGGYTCMCAGRLSEPGLICPDSTPPPHLREDDHHYSVRNSDSECPLSHDGYCLHDGVCMYIEALDKYACNCVVGYIGERCQYRDLKWWELRHAGHGQQQKVIVVAVCVVVLVMLLLLSLWGAHYYRTQKLLSKNPKNPYEESSRDVRSRRPADTEDGMSSCPQPWFVVIKEHQDLKNGGQPVAGEDGQAADGSMQPTSWRQEPQLCGMGTEQGCWIPVSSDKGSCPQVMERSFHMPSYGTQTLEGGVEKPHSLLSANPLWQQRALDPPHQMELTQ
modifications: Pro-epidermal growth factor
As to B2, the Ki in assay [2] came out at 3.2 nM.
